In the Immune Epitope Database (IEDB):

Tests used:
Experiment in all cases: IEDB peptide-MHC binding, purified MHC/competitive/radioactivity; filed as Kd, often an IC50 or EC50 that approximates it; ≥ and ≤ were set here for values at or beyond the usual limits of such assays
HLA-A*03:01 = target: HLA-A*03:01
HLA-A*11:01 = target: HLA-A*11:01
HLA-A*31:01 = target: HLA-A*31:01
HLA-A*33:01 = target: HLA-A*33:01
HLA-A*68:01 = target: HLA-A*68:01
[1] = source organism: Dengue virus 1 Brazil/97-11/1997
[2] = source organism: Dengue virus 3 Martinique/1243/1999
[3] = source organism: Vaccinia virus WR
[4] = source organism: SARS coronavirus Tor2
[5] = source organism: Dengue virus 2 Jamaica/1409/1983
[6] = source organism: Dengue virus 4 Philippines/H241/1956
[7] = source organism: Mammarenavirus guanaritoense
[8] = source organism: Dengue virus 1 Singapore/S275/1990
[9] = source organism: Lymphocytic choriomeningitis virus (strain Armstrong)
[10] = source organism: Mammarenavirus machupoense

| Sequence | Kd (HLA-A*03:01; [3]) | Kd (HLA-A*11:01; [3]) | Kd (HLA-A*31:01; [3]) | Kd (HLA-A*33:01; [3]) | Kd (HLA-A*68:01; [3]) | other results |
| --- | --- | --- | --- | --- | --- | --- |
| GVTLFFLSGK | – | – | – | – | – | Kd (HLA-A*03:01; [1]): 13.1 nM; Kd (HLA-A*11:01; [1]): 23.8 nM |
| ATKSEHTGR | – | – | – | – | – | Kd (HLA-A*31:01; [2]): 1.85 nM |
| IMKSVGTGK | – | – | – | – | – | Kd (HLA-A*03:01; [2]): 4.95 nM |
| ITTDDLVKSY | ≥ 70100 nM | 11000 nM | ≥ 70000 nM | ≥ 70000 nM | 1020 nM | – |
| GANYLGKPK | – | – | – | – | – | Kd (HLA-A*03:01; [4]): 510 nM; Kd (HLA-A*11:01; [4]): 1080 nM; Kd (HLA-A*31:01; [4]): 1480 nM; Kd (HLA-A*33:01; [4]): ≥ 77700 nM; Kd (HLA-A*68:01; [4]): 3450 nM |
| KSDNIINIGY | 106 nM | 142 nM | 3870 nM | ≥ 48600 nM | 2930 nM | – |
| EFKEFAAGR | – | – | – | – | – | Kd (HLA-A*68:01; [5]): 594 nM |
| HMIVGRQEK | – | – | – | – | – | Kd (HLA-A*03:01; [5]): 66.6 nM |
| KWLKECGVDR | – | – | – | – | – | Kd (HLA-A*31:01; [6]): 364 nM |
| KILDAVVAQE | – | – | – | – | – | Kd (HLA-A*03:01; source organism: Homo sapiens): 847 nM |
| FLMSGKGIGK | – | – | – | – | – | Kd (HLA-A*03:01; [5]): 42.6 nM; Kd (HLA-A*11:01; [5]): 99.8 nM |
| YLSTFNMWR | 201 nM | 666 nM | 64.7 nM | 94.5 nM | 3.42 nM | – |
| NMLKRVRNR | – | – | – | – | – | Kd (HLA-A*33:01; [2]): 109 nM |
| EFGKAKGSR | – | – | – | – | – | Kd (HLA-A*33:01; [2]): 125 nM |
| AVLDMCAALK | – | – | – | – | – | Kd (HLA-A*03:01; [4]): 12.9 nM; Kd (HLA-A*11:01; [4]): 6.06 nM; Kd (HLA-A*31:01; [4]): 80.4 nM; Kd (HLA-A*33:01; [4]): 756 nM; Kd (HLA-A*68:01; [4]): 117 nM |
| SIKDVIHDY | 2830 nM | 2810 nM | 2260 nM | 19400 nM | 3550 nM | – |
| QLPKRGVRVR | ≥ 22600 nM | ≥ 47000 nM | 5380 nM | ≥ 70000 nM | ≥ 20100 nM | – |
| AAKYVEHDPR | ≥ 31000 nM | ≥ 39000 nM | 171 nM | 1480 nM | 251 nM | – |
| VTLFFLSGK | – | – | – | – | – | Kd (HLA-A*03:01; [1]): 3.82 nM; Kd (HLA-A*11:01; [1]): 12.4 nM |
| ILKKLSSIK | 4.69 nM | 1090 nM | 3180 nM | 1560 nM | 4810 nM | – |
| TILDDNLYK | 390 nM | 14.8 nM | ≥ 50300 nM | ≥ 77700 nM | 1180 nM | – |
| ITDMINASLK | 151 nM | 81.2 nM | 10600 nM | ≥ 27300 nM | 76.3 nM | – |
| NMLSIINKR | – | – | – | – | – | Kd (HLA-A*31:01; [2]): 42.1 nM; Kd (HLA-A*33:01; [2]): 23 nM |
| FSLESDSIK | 1570 nM | 565 nM | 960 nM | 2220 nM | 187 nM | – |
| SAQCFKMFYK | – | – | – | – | – | Kd (HLA-A*03:01; [4]): 18.4 nM; Kd (HLA-A*11:01; [4]): 4.59 nM; Kd (HLA-A*31:01; [4]): 26.8 nM; Kd (HLA-A*33:01; [4]): 398 nM; Kd (HLA-A*68:01; [4]): 30.5 nM |
| RLCTREEFTK | – | – | – | – | – | Kd (HLA-A*03:01; [2]): 76.6 nM |
| SIVLHIQLEH | – | – | – | – | – | Kd (HLA-A*03:01; [7]): 1460 nM; Kd (HLA-A*11:01; [7]): 1070 nM; Kd (HLA-A*31:01; [7]): 11800 nM; Kd (HLA-A*33:01; [7]): 8100 nM; Kd (HLA-A*68:01; [7]): ≥ 22100 nM |

| Sequence | Kd (HLA-A*03:01; [3]) | Kd (HLA-A*11:01; [3]) | Kd (HLA-A*31:01; [3]) | Kd (HLA-A*33:01; [3]) | Kd (HLA-A*68:01; [3]) | other results |
| --- | --- | --- | --- | --- | --- | --- |
| YMTSMKRFK | – | – | – | – | – | Kd (HLA-A*03:01; [1]): 897 nM |
| ILARWGSFK | – | – | – | – | – | Kd (HLA-A*03:01; [8]): 2.13 nM; Kd (HLA-A*11:01; [8]): 77.8 nM |
| KFTILEYLY | 7090 nM | 2180 nM | 1030 nM | 9060 nM | 808 nM | – |
| TFTNDSIISH | – | – | – | – | – | Kd (HLA-A*03:01; [9]): ≥ 47000 nM; Kd (HLA-A*31:01; [9]): ≥ 64700 nM; Kd (HLA-A*33:01; [9]): 8720 nM; Kd (HLA-A*68:01; [9]): 6850 nM |
| SSVQLSNNKY | 4650 nM | 141 nM | 2870 nM | 10100 nM | 65.7 nM | – |
| SQIFNIISY | 675 nM | 53.5 nM | 915 nM | 996 nM | 158 nM | – |
| TIAGGVCYY | 110 nM | 94.7 nM | 16200 nM | ≥ 51000 nM | 605 nM | – |
| YMIGQTGIQR | – | – | – | – | – | Kd (HLA-A*33:01; [6]): 79.2 nM; Kd (HLA-A*68:01; [6]): 98.3 nM |
| TAIFLTTLSR | – | – | – | – | – | Kd (HLA-A*11:01; [5]): 298 nM; Kd (HLA-A*68:01; [5]): 2.83 nM |
| TTETPTWNR | – | – | – | – | – | Kd (HLA-A*33:01; [2]): 1.28 nM; Kd (HLA-A*68:01; [2]): 14.5 nM |
| ATMLDVDLR | – | – | – | – | – | Kd (HLA-A*11:01; [8]): 41.5 nM |
| SFSNTIQSY | 11700 nM | 4300 nM | ≥ 77900 nM | ≥ 77700 nM | 10400 nM | – |
| HIVCSKTVK | 291 nM | 1590 nM | 623 nM | ≥ 32800 nM | 118 nM | – |
| AGLAFSLMK | – | – | – | – | – | Kd (HLA-A*11:01; [1]): 11.2 nM |
| TLQGPPGTGK | – | – | – | – | – | Kd (HLA-A*03:01; [4]): 282 nM; Kd (HLA-A*11:01; [4]): 264 nM; Kd (HLA-A*31:01; [4]): 3290 nM; Kd (HLA-A*33:01; [4]): 8190 nM; Kd (HLA-A*68:01; [4]): 225 nM |
| AIGTSITQK | – | – | – | – | – | Kd (HLA-A*03:01; [1]): 9.33 nM; Kd (HLA-A*11:01; [1]): 60.9 nM |
| MVDELVTRK | 68.9 nM | 161 nM | 3950 nM | 2030 nM | 793 nM | – |
| INMLKRVRNR | – | – | – | – | – | Kd (HLA-A*31:01; [2]): 1570 nM |
| KLRPKWLDAR | – | – | – | – | – | Kd (HLA-A*31:01; [6]): 2.11 nM |
| MVLLIPEPEK | – | – | – | – | – | Kd (HLA-A*11:01; [2]): 115 nM |
| YMWQVKTQR | – | – | – | – | – | Kd (HLA-A*31:01; [6]): 1.41 nM; Kd (HLA-A*33:01; [6]): 1.3 nM |
| LGMMVLKIVR | – | – | – | – | – | Kd (HLA-A*33:01; [5]): 1910 nM |
| LIGANYLGK | – | – | – | – | – | Kd (HLA-A*31:01; [4]): 8930 nM; Kd (HLA-A*33:01; [4]): ≥ 77700 nM; Kd (HLA-A*68:01; [4]): 10900 nM |
| RAGRVIDPR | – | – | – | – | – | Kd (HLA-A*31:01; [6]): 29.1 nM |
| CQFDHVNTLH | – | – | – | – | – | Kd (HLA-A*03:01; [10]): 18400 nM; Kd (HLA-A*11:01; [10]): 8740 nM; Kd (HLA-A*31:01; [10]): 1930 nM; Kd (HLA-A*68:01; [10]): 9280 nM |
| NVTEVKGYTK | – | – | – | – | – | Kd (HLA-A*68:01; [6]): 40.6 nM |
